Here are results for 40 sequences from the nanobody polyreactivity screen of Harvey et al. (2022).

A short description of the data set: yeast display, Sf9 membrane polyspecificity reagent, FACS + sequencing; frameworks hold sequencing errors. In short, it runs like this:
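A synthetic nanobody library was expressed on Saccharomyces cerevisiae BJ5465 by galactose induction for 36–48 hours. The library was stained for 1 hour at 4 °C with 10% biotinylated, detergent-solubilized Sf9 membrane reagent and enriched with streptavidin microbeads before FACS. Low and high (top ~1%) gates were set on anti-HA fluorescence for expression and streptavidin fluorescence for reagent binding, and each polyreactivity label reflects the gate of origin.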
In the case of “QVQLVESGGGLVQAGGSLRLSCAASGSIFYYYAMGWDRQENGKESELVAAIDWDGGTTYYADSVMGLFTISRDNAKNTVYLQMNSLKPEDTAVFYCAGEVLYGPGGGYEYWGQGTQVTVSS”, the “polyreactivity (PSR sort gate)” value is on record as “high polyreactivity”.

As for “QVQLVESGGGLVQAGGSLRLSCAASGGTLFTNAMGWYRQAPGKERELVAAISWRGGRTYYADSVKGRFTISRDNAKNTVYLQMNSLKPEDTAVYYCAAASAAGYDYWGQGTQVTVSS”, the “polyreactivity (PSR sort gate)” value is “low polyreactivity”.

Consider “QVQLVESGGGLVQAGGSLRLSCAASGFTFYYYAMGWYRQAPGKERELVAAISKSGGSTYYADSVKGRFTISRDNAKNTVYLQMNSLKPEDTAVYYCARDKGSSGKGHGYWGQGTQVTVSS”, for which the “polyreactivity (PSR sort gate)” value is “high polyreactivity”. Regarding “QVQLVESGGGLVQAGGSLRLSCAASGSTFTWYAMGWYRQAPGKERELVAAISWSGDSTYYADSVKGRFTISRDNAKNTVYLQMNSLKPEDTAVYYCAAENVYGYDYWGQGTQVTVSS”, the “polyreactivity (PSR sort gate)” value is recorded as “high polyreactivity”. As for “QVQLVESGGGLVQAGGSLRLSCAASGLTFARNAMGWYRQAPGKERELVAAISSRGGSTYYADSVKGRFTISRDNAKNTVYLQMNSLKPEDTAVYYCATSQVLRRDRYDYWGQGTQVTVSS”, the “polyreactivity (PSR sort gate)” value was “high polyreactivity”. For the sequence “QVQLVESGGGLVQAGGSLRLSCAASGRTFAVYAMGWYRQAPGKERELVASIRLSGTRTYYADSVKGRFTISRDNAKNTVYLQMNSLKPEDTAVYYCAAKGTYSRGTFNGYRYDYWGQGTQVTVSS”, the “polyreactivity (PSR sort gate)” value is “high polyreactivity”. As for “HVQLQESGGVLVQARGSLRLSCAASGNISYSRNMGWYRQAPGKERELVDAIDRGAITYYADSVKGRFTISRDNANNTVYLQIYSLKPEDSAVYYCAAEYHDRWDHRYWGQGSQVTVSS”, the “polyreactivity (PSR sort gate)” value is reported as “high polyreactivity”. As for “QGQLVESGGGLVQAGGSLRLSCAATGLIFDTNAMGWYRQAPGKERELVAAINSTGSTNYADSVKGRFTISRDNAKNTVYLQMNSLKREDTAVYYCAVEYDSSAQPRTEFDYWGQGTQVTVSS”, the “polyreactivity (PSR sort gate)” value is “low polyreactivity”. Take “QVQLVESGGGLVQAGGSLRLSCAASGRIITGNAMGWYRQAPGKERELVATITRRGGSTYYADSVKGRFTISRDNAKNTVYLQMNSLKPEDTAVYYCAANRLFSYDKYGYWGQGTQVTVSS”: the “polyreactivity (PSR sort gate)” value is given as “high polyreactivity”. On to “QVQLEESGGGLVQARGSLRLSCAASGSTFNSYAMGWYRQAPGKERELVAAISSTGGNTYYADSVKGRFTISLDNAKNTVYLQMNSLKPEDTAVYYCNARRYGKVVRSSYNYWGQGTQVTVSS”, for which the “polyreactivity (PSR sort gate)” value is given as “high polyreactivity”.

On to “QVQLEESCGGLVQAGGSHRLICAASGPTIRYNGIGWYRQAPRKEREFLAAISWSGGSTYYADSVKGRFTISRDYAKNTVYLQMNSLKPEDTAVYYCNVDFHWQRFHHISADYDYWGLGTQVTVSS”, for which the “polyreactivity (PSR sort gate)” value is listed as “high polyreactivity”.

With “QVQLVESGGGLVQAGGSLRLSCAASGIIFGDNAMGWYRQAPGKERELVAAITIGGTSTYYADSVKGRFTISRDNAKNTVYLQMNSLKPEDTAVYYCAKTILYDCDYWGQGTQVTVSS”, the “polyreactivity (PSR sort gate)” value is “low polyreactivity”. As for “QVQLVESGGGLVQAGGSLRLSCAASGLIFYANVMGWYRQAPGKERELVAAISRSGTSTYYADSVKGRFTISRDNAKNTVYFQMNSLKPEDTAVYYCAADFVKRQANRQFDYWGQGTQVTVSS”, the “polyreactivity (PSR sort gate)” value is on record as “high polyreactivity”. In the case of “QVQLVESGGGLVQAGGSLRLSCAASGSIFPYYAMGWYRQAPGKERELVAAITSAGSTNYADSVKGRFTISRDNAKNTVYLQMNSLKPEDTAVYYCAKEYYASGRSYRYPQYDYWGQGTQVTVSS”, the “polyreactivity (PSR sort gate)” value is “low polyreactivity”.

“QVQLVESGGGLDQEGGSLRLSCAASGSIFFWNDMGWYRQAPGKERELVAAISWSGGSTSYADSVKGRFTISRDNAKNTVYLQMNSLKPEDTAVYYCAAEYTYGSPYDYWGQGTQVTVSS”: the “polyreactivity (PSR sort gate)” value was “low polyreactivity”. Consider “QVQLVESGGGLVQAGGSHRLSCAASGRIFGYNAMGWYRQAPGKEWELVAAISSPGNTYYADSVKGRFTISRDNAKNTVYLQMNSLKPEDTAVYYCARSWLYSQRRYDYWGQGTQVTVSS”, for which the “polyreactivity (PSR sort gate)” value is “low polyreactivity”.

“QVQLVESGGGLVQAGGSLRLSCAASGRIFQDNAMGWSRQAPGNERELVAAISKSGGITYYADSVKGRFTISRDNAKNTVYLQMNSLKPEDTAVYNCAAVWSRFLISYSTGWWFEYWGQGTQVTVSS”: the “polyreactivity (PSR sort gate)” value was “low polyreactivity”. Take “QVQLVESGGGLVQAGGSLRLSCAASGFTFDYNAMGWYRQAPGKERELVAAISASGGSTYYADSVKGRYTISRDTAKNTVYLQMNSLKPEYTAVYYCAAKRFSPQHRYDHWGQGTQVTVSS”: the “polyreactivity (PSR sort gate)” value is given as “high polyreactivity”. On to “QVQLVESGGGLVQSGGSLRLSCAASGSTFSINAMGWYRQAPGKERELVAAITWRGVRTYYADSVKGRFTITRDNAKNTVYFQMNSLKPEDTAVYYCAADVVVAGHPGFDYWGQGTQVTVSS”, for which the “polyreactivity (PSR sort gate)” value was “high polyreactivity”.

In the case of “QVQLVESGGGLVQAGGSLRLSCAASGSTFWHYAMGWYRQAPGKERELVAAISSGGGRTYYADSVKGRFTISRDNAKNTVYLQMNSLQPEDTAVYYCAARYYFYDYWGQGTQVTLSS”, the “polyreactivity (PSR sort gate)” value is given as “high polyreactivity”. For the sequence “QVQLVESGGGLVQAGGSLRLSCAASGNTFNSYAMGWYRQAPGKERELVAAIRWRGTSTYYADSVKGRFTISRDTAKNTVYLQMNSLKPEDTAVYYCAADVVRSNFYGTFLYDYDYWGQGTQVTVSS”, the “polyreactivity (PSR sort gate)” value is on record as “low polyreactivity”. Turning to “QVQLVESGGGLVQAGGSLRLSCAASGFTFGNYAMGWYRQAPGKERELVAAISSRGGSTYYADSVKGRFTISRDNAKNTVYLQMNSLKPEDTAVYYCNALRLEVDMGYWGQGTQITVSS”, the “polyreactivity (PSR sort gate)” value is on record as “high polyreactivity”. “QVQLVESGGGLVQAGGSLRLSCAASGGTFRVYAMGWYRQAPGKERELVAAITGRGGSTYYADSVKGRFTISRDNAKNTVYLQMNSLKPEDTAVYYCAKDPVTTYYKYDYWGQGTQVTVSS”: the “polyreactivity (PSR sort gate)” value is “low polyreactivity”. With “QVQLVESGGGLVQAGGSLRLSCAASGRTFAAYAMGWYRKAPGKEREFVADITYSGGSTTYADSVKGRFTISRDNAKNTVYLQMNSLKPEDTAVYDCIKLAYTRGWRGFVWYDYWGQGTQVTVSS”, the “polyreactivity (PSR sort gate)” value is recorded as “low polyreactivity”. “QAELVESGGGLVQAGGSLRLSCAASGFTFTAYPMGWYRQAPGKERELVAAISYRGGRTNYAYSVKGRFTISRDNAKNTVYLQMNRLKPEDTAVYYCAARPRISTREMDYWGQGTQVTVSS”: the “polyreactivity (PSR sort gate)” value is listed as “high polyreactivity”. As for “QVQLVESGGGLVQAGGSLRLSCADSGFILTYYAMGWYRQAPGKERELVAAISWSGGSTYYADSVKGRFTISRDNAKNTVYLQMNSLKPEDTAVYYCAAEKRYSSYDYWGQGTQVTVSS”, the “polyreactivity (PSR sort gate)” value is listed as “high polyreactivity”. The same measure for “QVQLVESGGGLVQAGGSLRLSCASSGITFDKYAMGWYRQAPGKERELVAAISGSDGSTYYADSVKGRFTISRDNAKNTVYLQNNSLKPEDTAVYYCAAESEYAGTYEYDYWGQGNQVTVSS”: “low polyreactivity”.

“QVQLVESVGGLVQAGGSLRLSCAASGSTFSSNAMGWYRQAPGKERELVAAINRTGNTYYADSVKGRFTISRDNAKNTVYLQMNSLKPEDTAVYYCNTDLNLYRGGGYWGQGTQVTVSS”: the “polyreactivity (PSR sort gate)” value is “low polyreactivity”. For “QVQLVESGGGLVQAGGSLRLRCAASGFILYPYAMGWYRQAPGKERELVAAITSRGGRTYYADSVKGRFTISRDKAKHSVYFQMNSLKPEDTAVFYCAAKRTCNYAPLKYYSWGQGTQVTVSS”, the “polyreactivity (PSR sort gate)” value is on record as “high polyreactivity”. For “QVQLVESGGGLVQAGGSLRLSCAASGRIFYSYAMGWYRQAPGNERELVAAIPRSGGRTYYADSVKGRFTISRDKAKNTGYLQMNCLKPEDTAVYDCATVWPSISPYPGYNYWGQGTQVTVSS”, the “polyreactivity (PSR sort gate)” value is reported as “high polyreactivity”. For “QVQLVESGGGLVQAGGSLRLSCAASGFIFADYDMGWYRQAPGKERELVDAISWSGGTTYYADSVKGRFTISRDNAKHTVYLQMNSLKPEDTAVYYCAAYWWAVYSVVTGARYVYWGQGTQVTLSS”, the “polyreactivity (PSR sort gate)” value was “high polyreactivity”. As for “QVQLEESGGGLVQAGGSLRLSCAASGSIFALYTIGWSRQAPRKERELVAAISSRGGSTYYADSVKGRFTISRDNAKNTVYLQMNSLKPEDTAVYYCNAVVRESAYNFDYWGQGTQVTVSS”, the “polyreactivity (PSR sort gate)” value was “high polyreactivity”.

Consider “QVQVVESGGGLVQAGGSLRLSCAASGFIFWEYAMGWYRQAAVKECELVSAISTSGGSTYYADSVKGRFTISRDNAMNSVYLQKNCLKQEDTAVYYCATDVYSGPLLKYDYWGQGTKVTVSS”, for which the “polyreactivity (PSR sort gate)” value was “low polyreactivity”. On to “QVQLVESGGGLVQAGGSLRLSCAASGSTFTNYAMGRYRQSAGKERELLAAINSGGSTHYADSVKGRFTISRDNANNTVYLQMYSLKPEDTAVYYCDADPSALVYYWRWLGYDYWGQGTQVTVSS”, for which the “polyreactivity (PSR sort gate)” value is listed as “high polyreactivity”. With “QVQLVESGGGLVQAGGSLRLSCAASGSTFPGYAMGWYRQAPGKERELVAAINWRGDSTYYADSVKGRFTISRDNAKNTVYLQMNSLKPEDTAVYYCAAKYNHVTDEYDYWGQGTEVTVSS”, the “polyreactivity (PSR sort gate)” value is reported as “high polyreactivity”. The same measure for “QVQLVESGGGLVQAGGSLRLSCAASGSIFYGNAMGWYRQAPGKERELVAGISWSGGSTYYADSVKGRFTISRDNAKYTVYLQMNSLKPEDTAVYYCATVADEPRAYSGYEESDYWGQGTQVTVSS”: “low polyreactivity”; for “QVQLVESGGGLVQAGGSLRLSCAASGSIFYTYVMGWYRQAPGKERELVAAISASGVRTYYADSVKGRFTISRDNAKNTVYLQMNSLKPEDTAVYYCAARYATWYFRRGRKTSDYDYWGQGTQVTVSS”: “high polyreactivity”.

On to “QVQLVESGGGLVQAGGSLRLSCAASGIIFTVYAMGWYRQPPGTERELVAAITSSGGRTYYADSVKGRFTISRDNAKNTVYLQMNSLKPDDTAVYYCAARRPGYVRKDDYWGQGTQVTVSS”, for which the “polyreactivity (PSR sort gate)” value is reported as “high polyreactivity”.

For the sequence “QVQLVESGGGLVQAGGSLRLSCAASGFILDYNAMGWYRQAPGKERELVATITGRGDRTYYADSVKGRFTISRDNAKNTVYLQMNSLKPEDTAVYYCAAGFDGSRHPGFDSWGQGTQVTVSS”, the “polyreactivity (PSR sort gate)” value was “low polyreactivity”.

“QVQLVESGGGLVQAGGSLRLTCAASGSIFFYYTMGWYRQAPGKERELVAAISVGGSTYYADSVKGRFTISRDNAKNTVYLQMNSLKPEDTAVYYCNAVPAKGYVTVVRYYYWGQGTQVTVSS”: the “polyreactivity (PSR sort gate)” value was “low polyreactivity”.
